What was measured:
[1] = biological target: rat jejunum brush border membranes; conditions: read-out: Ki, competitive inhibition of folic acid uptake; cited from earlier work
[2] = system: PCFT; assay: [3H](6S)5-methylTHF uptake in HeLa cells transiently transfected with mutated PCFT cDNA; type: cell-based, human; conditions: 0.5 μM, pH 5.5, 37° C., 2 min, transiently transfected HeLa cells
From the text: Analysis of G21 in a family with hereditary folate malabsorption. Members of a family with hereditary folate malabsorption were studied according to a protocol and Informed Consent in the subjects' native language approved by the Albert Einstein College of Medicine IRB (CCI#2006-279). Whole blood was used for isolation of genomic DNA by a Genomic DNA Purification Kit (Gentra Systems, Minneapolis, Minn.) and to generate EBV-transformed human B-lymphoblastoid cell lines in the Einstein Human Genetics Cell Culture Core. Each G21 exon with flanking regions was amplified using Taq DNA polymerase, Q-solution (Qiagen, Valencia, Calif.) and primers listed in Table 4. G21 or RFC cDNA were amplified from lymphoblastoid cells by RT-PCR. PCR products were gel-purified and sequenced in an ABI 3730 DNA Analyzer (Applied Biosystems). The mutated region was verified by sequencing both DNA strands. An expression vector of the mutated G21 in which exon 3 was skipped (GenBank accession number: BC010691) was purchased from Open Biosystems and, along with pcDNA3.1(+)G21 (wild type), was used for an assay of transport function. Western blot analysis on whole cell lysate and cellular localization was performed as described above.
Site-directed mutagenesis. PCFT cDNA was cloned in pCDNA 3.1 (+) and mutations in the coding region were introduced by site-directed mutagenesis using PfuTurbo® DNA polymerase (Stratagene, La Jolla, Calif.) as described previously (Zhao et al., 2000). The entire PCFT coding region in the plasmid was sequenced to verify the presence of the mutation.
Transient transfections and assessment of 5-methylTHF transport. Plasmid concentrations were determined by UV absorption and verified by agarose gel analysis. HeLa cells were seeded and transiently transfected in 20 ml glass scintillation vials (Research Products International Corp., Mt. Prospect, Ill.) and after two days, [^3H]5-methylTHF uptake was assessed (Qiu et al., 2006). EBV-transformed B-lymphoblastoid cells, generated from blood (P6 and P7), were washed twice with, and resuspended in, unbuffered saline (160 mM NaCl, 5 mM KCl, 2 mM MgCl2, 5 mM glucose). Uptake was initiated by injection of the cell suspension into MES-buffered saline (pH 5.5) containing 0.5 μM [^3H]5-methylTHF. Surface binding was assessed by measuring [^3H]5-methylTHF associated with cells at 0° C. and the bound component was subtracted from total uptake.

CN1c2c(nc(N)[nH]c2=O)NCC1CNc1ccc(C(=O)N[C@@H](CCC(=O)O)C(=O)O)cc1 (mixture of isomers) [racemic 5-MTHF]
Ki [1]: 1400 nM

B1: S318R: human PCFT mutant protein (protein, UniProt Q96NT5 1-459, looked up, variant S318R)
Proton-coupled folate …: MEGSASPPEKPRARPAAAVLCRGPVEPLVFLANFALVLQGPLTTQYLWHRFSADLGYNGTRQRGGCSNRSADPTMQEVETLTSHWTLYMNVGGFLVGLFSSTLLGAWSDSVGRRPLLVLASLGLLLQALVSVFVVQLQLHVGYFVLGRILCALLGDFGGLLAASFASVADVSSSRSRTFRMALLEASIGVAGMLASLLGGHWLRAQGYANPFWLALALLIAMTLYAAFCFGETLKEPKSTRLFTFRHHRSIVQLYVAPAPEKSRKHLALYSLAIFVVITVHFGAQDILTLYELSTPLCWDSKLIGYGSAAQHLPYLTRLLALKLLQYCLADAWVAEIGLAFNILGMVVFAFATITPLMFTGYGLLFLSLVITPVIRAKLSKLVRETEQGALFSAVACVNSLAMLTASGIFNSLYPATLNFMKGFPFLLGAGLLLIPAVLIGMLEKADPHLEFQQFPQSP
[3H](6S)5-methylTHF uptake (transport function) [2]: essentially no uptake

B2: mutated G21 carrier: exon 3-deleted G21 (PCFT) protein, in-frame deletion of 28 amino acids (protein, listed as Homo sapiens)
chain: MEGSASPPEKPRARPAAAVLCRGPVEPLVFLANFALVLQGPLTTQYLWHRFSADLGYNGTRQRGGCSNRSADPTMQEVETLTSHWTLYMNVGGFLVGLFSSTLLGAWSDSVGRRPLLVLASLGLLLQALVSVFVVQLQLHVGYFVLGRILCALLGDFGGLLAASFASVADVSSSRSRTFRMALLEASIGVAGMLASLLGGHWLRAQGYANPFWLALALLIAMTLYAAFCFGETLKEPKSTRLFTFRHHRSIVQLYVAPAPEKSRKHLALYSLAIFVVITVHFGAQDILTLYELSTPLCWDSKLIGYGSAAQHLPYLTSLLALKLLQYCLADAWVAEIGLAFNILGMVVFAFATITPLMFTGALFSAVACVNSLAMLTASGIFNSLYPATLNFMKGFPFLLGAGLLLIPAVLIGMLEKADPHLEFQQFPQSP
[3H](6S)5-methylTHF uptake (transport function) [2]: lacked transport function
